Reference: patent publication US9260500B2, “Peptide and use thereof” (Takeda Pharmaceutical Company Limited, priority 2009, dated 2016)
Non-standard residues stand in square brackets, D forms with d. No end group written: not given here. *: point of attachment. Phe(4-NH2) = Nc1ccc(C[C@H](N)C(=O)O)cc1; Lys(Me2) = CN(C)CCCC[C@H](N)C(=O)O; hArg = N=C(N)NCCCC[C@H](N)C(=O)O; tBuAla = CC(C)(C)C[C@H](N)C(=O)O; 4Pal = N[C@@H](Cc1ccncc1)C(=O)O; dHyp = O=C(O)[C@H]1C[C@H](O)CN1; Cha = N[C@@H](CC1CCCCC1)C(=O)O; Gly(cPr) = N[C@H](C(=O)O)C1CC1; NMeS = CN[C@@H](CO)C(=O)O; Isobutyryl = CC(C)C(=O)*; Abu = CC[C@H](N)C(=O)O; Aib = CC(C)(N)C(=O)O; Aoc = NCCCCCCCC(=O)O; Bz = O=C(c1ccccc1)*

Assays:
[1] = target: T1, human Y2 receptor (Homo sapiens, UniProt P49146); experiment: Human Y2 Receptor G Protein Binding Assay (GBA), [35S]GTPγS; type: biochemical; settings: EC50 of test compound/EC50 of PYY(3-36) (PYY3-36 taken as 1), hY2R/CHO membrane fraction
T1 construct: expressed in transfected cells; membrane fraction
T1 sequence (P49146 1-381): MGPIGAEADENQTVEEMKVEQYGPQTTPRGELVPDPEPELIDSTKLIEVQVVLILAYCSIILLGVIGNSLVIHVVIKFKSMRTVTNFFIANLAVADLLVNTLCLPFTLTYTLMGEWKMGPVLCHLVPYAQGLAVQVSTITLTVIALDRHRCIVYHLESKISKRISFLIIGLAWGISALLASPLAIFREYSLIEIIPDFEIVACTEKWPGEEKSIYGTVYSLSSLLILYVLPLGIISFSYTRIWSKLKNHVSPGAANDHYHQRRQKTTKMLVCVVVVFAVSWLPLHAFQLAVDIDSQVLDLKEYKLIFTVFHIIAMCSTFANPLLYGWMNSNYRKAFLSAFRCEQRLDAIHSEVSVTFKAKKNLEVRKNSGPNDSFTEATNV
In short: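 Agonism measured as [35S]GTPγS binding, read by GF/C filtration and scintillation counting after 120 min at room temperature, using human Y2 membranes at 1 μg protein/mL in pH 7.4 Tris/MgCl2/NaCl/GDP buffer. Compound serially diluted 100 μM–1 nM; EC50 normalized to PYY(3-36) (ratio = compound/PYY).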

[2] = target: T1, human Y2 receptor; experiment: Receptor Binding Assay (RBA) for Human Y2, [125I]-PYY displacement on hY2R/CHO membrane fraction; settings: IC50 of test compound/IC50 of PYY(3-36) (PYY(3-36) taken as 1)
In short: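 Read-out is [125I]-PYY displacement from membranes of CHO/dhfr− cells stably transfected with human Y2R. Membranes were obtained by disrupting cells in a buffer of 10 mM NaHCO3, 5 mM EDTA and protease inhibitors.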

Ac-[Glu23, D-Pro24, Pya(4)26, Cha27,28,36, Aib31]-PYY(23-36) (Ac-E[dP]R[4Pal][Cha][Cha]NL[Aib]TRQR[Cha]-NH2; SMILES CC(=O)N[C@@H](CCC(=O)O)C(=O)N1CCC[C@@H]1C(=O)N[C@@H](CCCNC(=N)N)C(=O)N[C@@H](Cc1ccncc1)C(=O)N[C@@H](CC1CCCCC1)C(=O)N[C@@H](CC1CCCCC1)C(=O)N[C@@H](CC(N)=O)C(=O)N[C@@H](CC(C)C)C(=O)NC(C)(C)C(=O)N[C@H](C(=O)N[C@@H](CCCNC(=N)N)C(=O)N[C@@H](CCC(N)=O)C(=O)N[C@@H](CCCNC(=N)N)C(=O)N[C@@H](CC1CCCCC1)C(N)=O)[C@@H](C)O) [compound No. 141]
GBA EC50 Ratio [1]: 1.3 | RBA IC50 Ratio [2]: 4.6

Isobutanoyl-[Abu26, Cha27,28,36, Gln30, Aib31]-PYY(25-36) (Isobutyryl-R[Abu][Cha][Cha]NQ[Aib]TRQR[Cha]-NH2; SMILES CC[C@H](NC(=O)[C@H](CCCNC(=N)N)NC(=O)C(C)C)C(=O)N[C@@H](CC1CCCCC1)C(=O)N[C@@H](CC1CCCCC1)C(=O)N[C@@H](CC(N)=O)C(=O)N[C@@H](CCC(N)=O)C(=O)NC(C)(C)C(=O)N[C@H](C(=O)N[C@@H](CCCNC(=N)N)C(=O)N[C@@H](CCC(N)=O)C(=O)N[C@@H](CCCNC(=N)N)C(=O)N[C@@H](CC1CCCCC1)C(N)=O)[C@@H](C)O) [compound No. 90]
GBA EC50 Ratio [1]: 22 | RBA IC50 Ratio [2]: 19

Benzoyl-[Cha27,36, Ile28, Phe(4NH2)31]-PYY(25-36) (Bz-RH[Cha]INL[Phe(4-NH2)]TRQR[Cha]-NH2; SMILES CC[C@H](C)[C@H](NC(=O)[C@H](CC1CCCCC1)NC(=O)[C@H](Cc1c[nH]cn1)NC(=O)[C@H](CCCNC(=N)N)NC(=O)c1ccccc1)C(=O)N[C@@H](CC(N)=O)C(=O)N[C@@H](CC(C)C)C(=O)N[C@@H](Cc1ccc(N)cc1)C(=O)N[C@H](C(=O)N[C@@H](CCCNC(=N)N)C(=O)N[C@@H](CCC(N)=O)C(=O)N[C@@H](CCCNC(=N)N)C(=O)N[C@@H](CC1CCCCC1)C(N)=O)[C@@H](C)O) [compound No. 72]
GBA EC50 Ratio [1]: 5.4 | RBA IC50 Ratio [2]: 5.0

Ac-[D-Pro24, Pya(4)26, Cha27,36, Aib28,31, Lys30]-PYY(22-36) (Ac-AS[dP]R[4Pal][Cha][Aib]NK[Aib]TRQR[Cha]-NH2; SMILES CC(=O)N[C@@H](C)C(=O)N[C@@H](CO)C(=O)N1CCC[C@@H]1C(=O)N[C@@H](CCCNC(=N)N)C(=O)N[C@@H](Cc1ccncc1)C(=O)N[C@@H](CC1CCCCC1)C(=O)NC(C)(C)C(=O)N[C@@H](CC(N)=O)C(=O)N[C@@H](CCCCN)C(=O)NC(C)(C)C(=O)N[C@H](C(=O)N[C@@H](CCCNC(=N)N)C(=O)N[C@@H](CCC(N)=O)C(=O)N[C@@H](CCCNC(=N)N)C(=O)N[C@@H](CC1CCCCC1)C(N)=O)[C@@H](C)O) [compound No. 219]
GBA EC50 Ratio [1]: 1.7 | RBA IC50 Ratio [2]: 2.3

Ac-[MeSer23, D-Pro24, Cha27,28,36, Aib31]-PYY(22-36) (Ac-A[NMeS][dP]RH[Cha][Cha]NL[Aib]TRQR[Cha]-NH2; SMILES CC(=O)N[C@@H](C)C(=O)N(C)[C@@H](CO)C(=O)N1CCC[C@@H]1C(=O)N[C@@H](CCCNC(=N)N)C(=O)N[C@@H](Cc1c[nH]cn1)C(=O)N[C@@H](CC1CCCCC1)C(=O)N[C@@H](CC1CCCCC1)C(=O)N[C@@H](CC(N)=O)C(=O)N[C@@H](CC(C)C)C(=O)NC(C)(C)C(=O)N[C@H](C(=O)N[C@@H](CCCNC(=N)N)C(=O)N[C@@H](CCC(N)=O)C(=O)N[C@@H](CCCNC(=N)N)C(=O)N[C@@H](CC1CCCCC1)C(N)=O)[C@@H](C)O) [compound No. 129]
GBA EC50 Ratio [1]: 7.8 | RBA IC50 Ratio [2]: 12

Isobutanoyl-[Abu26, Cha27,28,36, Gly(cPr)31]-PYY(25-36) (Isobutyryl-R[Abu][Cha][Cha]NL[Gly(cPr)]TRQR[Cha]-NH2; SMILES CC[C@H](NC(=O)[C@H](CCCNC(=N)N)NC(=O)C(C)C)C(=O)N[C@@H](CC1CCCCC1)C(=O)N[C@@H](CC1CCCCC1)C(=O)N[C@@H](CC(N)=O)C(=O)N[C@@H](CC(C)C)C(=O)N[C@H](C(=O)N[C@H](C(=O)N[C@@H](CCCNC(=N)N)C(=O)N[C@@H](CCC(N)=O)C(=O)N[C@@H](CCCNC(=N)N)C(=O)N[C@@H](CC1CCCCC1)C(N)=O)[C@@H](C)O)C1CC1) [compound No. 88]
GBA EC50 Ratio [1]: 16 | RBA IC50 Ratio [2]: 25

Ac-[D-Hyp24, Cha27,36, Leu(Me)28, Lys30, Aib31]-PYY(23-36) (Ac-S[dHyp]RH[Cha][tBuAla]NK[Aib]TRQR[Cha]-NH2; SMILES CC(=O)N[C@@H](CO)C(=O)N1C[C@@H](O)C[C@@H]1C(=O)N[C@@H](CCCNC(=N)N)C(=O)N[C@@H](Cc1c[nH]cn1)C(=O)N[C@@H](CC1CCCCC1)C(=O)N[C@@H](CC(C)(C)C)C(=O)N[C@@H](CC(N)=O)C(=O)N[C@@H](CCCCN)C(=O)NC(C)(C)C(=O)N[C@H](C(=O)N[C@@H](CCCNC(=N)N)C(=O)N[C@@H](CCC(N)=O)C(=O)N[C@@H](CCCNC(=N)N)C(=O)N[C@@H](CC1CCCCC1)C(N)=O)[C@@H](C)O) [compound No. 203]
GBA EC50 Ratio [1]: 0.76 | RBA IC50 Ratio [2]: 0.38

Ac-[D-Pro24, Cha27,28,36, Lys(Me2)30, Aib31]-PYY(23-36) (Ac-S[dP]RH[Cha][Cha]N[Lys(Me2)][Aib]TRQR[Cha]-NH2; SMILES CC(=O)N[C@@H](CO)C(=O)N1CCC[C@@H]1C(=O)N[C@@H](CCCNC(=N)N)C(=O)N[C@@H](Cc1c[nH]cn1)C(=O)N[C@@H](CC1CCCCC1)C(=O)N[C@@H](CC1CCCCC1)C(=O)N[C@@H](CC(N)=O)C(=O)N[C@@H](CCCCN(C)C)C(=O)NC(C)(C)C(=O)N[C@H](C(=O)N[C@@H](CCCNC(=N)N)C(=O)N[C@@H](CCC(N)=O)C(=O)N[C@@H](CCCNC(=N)N)C(=O)N[C@@H](CC1CCCCC1)C(N)=O)[C@@H](C)O) [compound No. 166]
GBA EC50 Ratio [1]: 0.7 | RBA IC50 Ratio [2]: 0.8

[Lys(Ac)23, D-Pro24, Cha27,28,36, Aib31]-PYY(23-36) (K(Ac)[dP]RH[Cha][Cha]NL[Aib]TRQR[Cha]-NH2; N-terminus assumed; SMILES CC(=O)NCCCC[C@H](N)C(=O)N1CCC[C@@H]1C(=O)N[C@@H](CCCNC(=N)N)C(=O)N[C@@H](Cc1c[nH]cn1)C(=O)N[C@@H](CC1CCCCC1)C(=O)N[C@@H](CC1CCCCC1)C(=O)N[C@@H](CC(N)=O)C(=O)N[C@@H](CC(C)C)C(=O)NC(C)(C)C(=O)N[C@H](C(=O)N[C@@H](CCCNC(=N)N)C(=O)N[C@@H](CCC(N)=O)C(=O)N[C@@H](CCCNC(=N)N)C(=O)N[C@@H](CC1CCCCC1)C(N)=O)[C@@H](C)O) [compound No. 163]
GBA EC50 Ratio [1]: 2.5 | RBA IC50 Ratio [2]: 5.4

Ac-[D-Pro24, Aib25,28,31, Pya(4)26, Cha27,36, Lys30]-PYY(23-36) (Ac-S[dP][Aib][4Pal][Cha][Aib]NK[Aib]TRQR[Cha]-NH2; SMILES CC(=O)N[C@@H](CO)C(=O)N1CCC[C@@H]1C(=O)NC(C)(C)C(=O)N[C@@H](Cc1ccncc1)C(=O)N[C@@H](CC1CCCCC1)C(=O)NC(C)(C)C(=O)N[C@@H](CC(N)=O)C(=O)N[C@@H](CCCCN)C(=O)NC(C)(C)C(=O)N[C@H](C(=O)N[C@@H](CCCNC(=N)N)C(=O)N[C@@H](CCC(N)=O)C(=O)N[C@@H](CCCNC(=N)N)C(=O)N[C@@H](CC1CCCCC1)C(N)=O)[C@@H](C)O) [compound No. 236]
GBA EC50 Ratio [1]: 1.7 | RBA IC50 Ratio [2]: 8.4

Ac-[D-Pro24, Har25, Cha27,36, Aib28,31, Lys30]-PYY(23-36) (Ac-S[dP][hArg]H[Cha][Aib]NK[Aib]TRQR[Cha]-NH2; SMILES CC(=O)N[C@@H](CO)C(=O)N1CCC[C@@H]1C(=O)N[C@@H](CCCCNC(=N)N)C(=O)N[C@@H](Cc1c[nH]cn1)C(=O)N[C@@H](CC1CCCCC1)C(=O)NC(C)(C)C(=O)N[C@@H](CC(N)=O)C(=O)N[C@@H](CCCCN)C(=O)NC(C)(C)C(=O)N[C@H](C(=O)N[C@@H](CCCNC(=N)N)C(=O)N[C@@H](CCC(N)=O)C(=O)N[C@@H](CCCNC(=N)N)C(=O)N[C@@H](CC1CCCCC1)C(N)=O)[C@@H](C)O) [compound No. 291]
GBA EC50 Ratio [1]: 2.7 | RBA IC50 Ratio [2]: 1.2

[Aoc(8)23, D-Pro24, Cha27,28,36, Aib31]-PYY(23-36) ([Aoc][dP]RH[Cha][Cha]NL[Aib]TRQR[Cha]-NH2; N-terminus assumed; SMILES CC(C)C[C@H](NC(=O)[C@H](CC(N)=O)NC(=O)[C@H](CC1CCCCC1)NC(=O)[C@H](CC1CCCCC1)NC(=O)[C@H](Cc1c[nH]cn1)NC(=O)[C@H](CCCNC(=N)N)NC(=O)[C@H]1CCCN1C(=O)CCCCCCCN)C(=O)NC(C)(C)C(=O)N[C@H](C(=O)N[C@@H](CCCNC(=N)N)C(=O)N[C@@H](CCC(N)=O)C(=O)N[C@@H](CCCNC(=N)N)C(=O)N[C@@H](CC1CCCCC1)C(N)=O)[C@@H](C)O) [compound No. 117]
GBA EC50 Ratio [1]: 1.9 | RBA IC50 Ratio [2]: 2.1
